The series concerns MS2 coat protein. The series is described as follows: apparent KD of MS2 coat protein; designed switch direction (-1 OFF switch, 1 ON switch): -1; higher = weaker reporter binding. Put shortly: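 RNA switches sharing common flanks were transcribed by stalled E. coli RNA polymerase on Illumina chips. A doubling series of SNAP-549-labelled MS2 coat protein, from 0.7 or 1.5 nM to 3 µM, was applied in Tris-HCl pH 7.5 buffer with KCl, MgCl2, BSA, DTT, tRNA and Tween-20. Each step lasted 0.8–1.5 h at the bottom of the series and 10–20 min at the top. Normalised cluster fluorescence was curve-fitted, giving apparent KD as the per-design median over clusters.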

The mark [1] stands for this setting: input ligand: microRNA oligo, concentration not stated.
The mark [2] stands for this setting: Eterna round: R95, input ligand: FMN 200 uM.
Where [3] appears, read: Eterna round: R95, input ligand: microRNA oligo, concentration not stated.
Setting [4] is: Eterna round: R95, input ligand: none.

The values below come from the supplement of paper PMC9170038.

Take “GCUGGAAAAGGAUAUACAUAACGUGCGUCGGCACGAGAUCUACAUGAGGAUCACCCAUGUAGAAGGUUUCCAGC [EX2 #73] (Eterna round: R97, puzzle: Exclusion 2)”: the “apparent KD of MS2 coat protein” value was 0.0334 µM (input ligand: FMN 200 uM) and 0.0143 µM (input ligand: none).
Take “GCUUCUGGGCAAGGAUAUCCUGCGCUGUUCUGGUUCGUGUCUGUCACAUGAGGAUCACCCAUGUGGGAGAAGGUGCCUGUGGUG [Design 69] (Eterna round: R96, puzzle: Exclusion NG 2)”: the “apparent KD of MS2 coat protein” value reads like this: (input ligand: FMN 200 uM) 0.0187 µM; under setting [1], 0.0113 µM; (input ligand: none) 0.0195 µM.
As to “GCUUGAGCAGGAUAUACAAUGAGCUUGAGAAAUCGAGUUCGACAUGAGGAUCACCCAUGUAGAAGGGUUCGAGU [-27.3, -25 kcal, A 31% 1 and 1bis] (Eterna round: R97, puzzle: Exclusion 2)”, the “apparent KD of MS2 coat protein” value by setting is: (input ligand: FMN 200 uM) 0.0384 µM; (input ligand: none) 0.0243 µM.
For the sequence “GCUUGUGUUGAGGAUAUGCGCCGGCUCGCUGGCGCAGAAGGCGGCACAUGAGGAUCACCCAUGUCAGUUCGCGU [salish99_ex6_r004_010] (Eterna round: R97, puzzle: Exclusion 6)”, the “apparent KD of MS2 coat protein” value (input ligand: FMN 200 uM) is 0.428 µM and the “apparent KD of MS2 coat protein” value (input ligand: none) was determined as 0.038 µM.
Consider “GCUUUUCUUUUCCUUUCUUACAUGAGGAUCACCCAUGUUUCUUGUCCUGCUCGCGUUGCUCGUCUGUCUGUCUGUUG [salish99_TOv1_r3_080] (puzzle: Sensor v3, turn-off variant 1)”, for which the “apparent KD of MS2 coat protein” value reads like this: under setting [2], 0.0287 µM; under setting [3], 0.0243 µM; under setting [4], 0.0312 µM.
For “GCUUUUUGUGUAGGAUAUCGCGCGCGGCGUGUGUGAGAAGGACAUGAGGAUCACCCAUGUAGCAACGGCGGCGCUGGUGUUGUC [-27, -24 kcal and 18% A] (Eterna round: R96, puzzle: Exclusion NG 1)”, the “apparent KD of MS2 coat protein” value (input ligand: FMN 200 uM) is 0.0167 µM, the “apparent KD of MS2 coat protein” value under setting [1] came out at 0.0107 µM and the “apparent KD of MS2 coat protein” value (input ligand: none) is 0.0195 µM.
“GGAAGUAGAAACCGAUCCUACAUGAGGAUCACCCAUGUAGCAAGACGUGCACGCGAAGCUCGUCAGACUACCAGAAC [salish99_TOv1_r3_012] (puzzle: Sensor v3, turn-off variant 1)”: the “apparent KD of MS2 coat protein” value is, setting by setting: under setting [2], 0.204 µM; under setting [3], 0.383 µM; under setting [4], 0.521 µM.
Take “GGAAUGAGAGAGGAUAUGGGAGGGAGGACCGGACCAGAAGGCUCGACAUGAGGAUCACCCAUGUGGAGAUCCUC [AK-MS2ROC-r4-exclusion6-6.11] (Eterna round: R97, puzzle: Exclusion 6)”: the “apparent KD of MS2 coat protein” value reads like this: (input ligand: FMN 200 uM) 0.236 µM; (input ligand: none) 1.48 µM.
Consider “GGACACUGAGGAUAUACAAUUCAGGUCCUCCUGUAGAGUAUACAUGAGGAUCACCCAUGUAGAAGGCAGACCAA [Aronberiat] (Eterna round: R97, puzzle: Exclusion 2)”, for which the “apparent KD of MS2 coat protein” value (input ligand: FMN 200 uM) turned out to be 0.344 µM and the “apparent KD of MS2 coat protein” value (input ligand: none) was determined as 0.0449 µM.
Take “GGACAGCGAGGAUAUACGUGUACGUUAUCCUCUAUGGGUCAACAUGAGGAUCACCCAUGUAGAAGGCGCAUAAU [Mabima] (puzzle: Exclusion 2)”: the “apparent KD of MS2 coat protein” value under setting [3] was found to be 0.0187 µM.
In the case of “GGACGGUAAGUGAGGAUAUGCUCUACCUCGGUAGAGCAGAAGGCACAUGAGGAUCACCCAUGUGAAAACUGUUC [Omei Ex4B B31] (Eterna round: R97, puzzle: Brourd's mod of Exclusion 4)”, the “apparent KD of MS2 coat protein” value reads like this: (input ligand: FMN 200 uM) 0.0215 µM; (input ligand: none) 0.015 µM.
With “GGAGAGUCAGGAUAUCGAAGGUAGAGAAGAGGAGAGUGGUACGAGAAGGGACAUGAGGAUCACCCAUGUAGGUG [JR_Exclusion4)Sub011] (puzzle: Exclusion 4)”, the “apparent KD of MS2 coat protein” value runs as follows: under setting [2], 0.457 µM; under setting [3], 0.645 µM; under setting [4], 0.452 µM.
In the same order, the values of “GGAGCGAUUCUCUUAGCAGACAUGAGGAUCACCCAUGUAUGCAAGCUCUUAUUUUGCUCGUCUUACCGGGAGUUGCU [Ridizaer] (puzzle: Sensor v3, turn-off variant 1)” are 0.0136 µM, 0.0207 µM and 0.013 µM.
In the same order, the values of “GGAGCGAUUCUCUUAGCUGACAUGAGGAUCACCCAUGUAUGCAAGCUCUUAUUUUGCUCGUCUUACCGGGAAUUGCU [Uslainar] (puzzle: Sensor v3, turn-off variant 1)” are 0.0148 µM, 0.0185 µM and 0.0132 µM.
Take “GGAGGACGAGCAGGAUAUUUUCACAUGAGGAUCACCCAUGUGUAUUCAGGGUAAUCUUCCGCCGAAAAGAAGGGUUCGGAAGAA [JL ViennaUCT Socedi mod 3] (Eterna round: R96, puzzle: Exclusion NG 2)”: the “apparent KD of MS2 coat protein” value is, setting by setting: (input ligand: FMN 200 uM) 0.0471 µM; under setting [1], 0.0274 µM; (input ligand: none) 0.0259 µM.
For the sequence “GGAUAAAACUGAGGAUAUACGCACCACUAACGAGUAGAAGGCAGACAUGAGGAUCACCCAUGUGAGUUCUCAAUAAGAAACACG [Prohibition 66 - Jieux - Exclusion NG 1] (Eterna round: R96, puzzle: Exclusion NG 1)”, the “apparent KD of MS2 coat protein” value worked out at 0.192 µM (input ligand: FMN 200 uM), 0.0889 µM under setting [1] and 0.0851 µM (input ligand: none).
“GGAUCACAUGUCAGGAUAUGCAGGUCCUUGGAUCUGCAGAAGGGACAUGAGGAUCACCCAUGUCAUGAAGAUCC [Mat - Exclusion 4 - Eli Mod - D51] (Eterna round: R97, puzzle: Brourd's mod of Exclusion 4)”: the “apparent KD of MS2 coat protein” value turned out to be 0.945 µM (input ligand: FMN 200 uM) and 0.145 µM (input ligand: none).
Turning to “GGAUCGAAUGUGAGGAUAUACCUAUGGAUACAUAGGUAGAAGGCACAUGAGGAUCACCCAUGUCCUAACGGUCC [Eli bmx4 4.14] (Eterna round: R97, puzzle: Brourd's mod of Exclusion 4)”, the “apparent KD of MS2 coat protein” value (input ligand: FMN 200 uM) amounted to 0.479 µM and the “apparent KD of MS2 coat protein” value (input ligand: none) was found to be 0.347 µM.
In the same order, the values of “GGAUCGAGUGUGAGGAUAUACCUAUGGAUACAUAGGUAGAAGGCACAUGAGGAUCACCCAUGUCCUAACGGUCC [Eli bmx4 4.15] (Eterna round: R97, puzzle: Brourd's mod of Exclusion 4)” are 0.933 µM and 0.308 µM.
As for “GGAUCUACUGAGGAUAUUACAUCACCCGACUGAUAAGAAGGCAGAACAUGAGGAUCACCCAUGUGGGUAGCCAA [Polaris4] (Eterna round: R97, puzzle: Exclusion 6)”, the “apparent KD of MS2 coat protein” value reads like this: (input ligand: FMN 200 uM) 0.0257 µM; (input ligand: none) 0.0213 µM.
Taken in the same sequence, the figures for “GGAUUACAUGAGGAUCACCCAUGUGAGGAUAUCCCGACAGGUUGCAGAGAACCUCGUAGGAGAAGGCACAGGCG [EX1 B.12] (Eterna round: R97, puzzle: Exclusion 1)” were 0.234 µM and 0.102 µM.
Taken in the same sequence, the figures for “GGCAAAGUAGGAUAUACAUGAGGAUCACCCAUGUUUCCAGAUGGCGUAGGUCUUCUUUGUAGAAGGGCUAUGCC [Ananinge] (Eterna round: R97, puzzle: Exclusion 3)” were 0.0201 µM and 0.0152 µM.
